Where a chain is given by its changes, count along the chain named. In names and notes the source's numbering stands. Entries after “also recorded” stand apart in the source; their conditions may differ. Values belong to the molecule of their own block, whether it stands above or below them.
Key:
SMYD2 [1] = target: T1, SMYD2 (Homo sapiens, UniProt Q9NRG4); experiment: In vitro SMYD2 methyltransferase assay with protein substrates (SDS-PAGE, 3H fluorography); format: biochemical; conditions: 1 μg of KMT, 1 μg of substrate, 1 μCi 3H-SAM, 1 hour, room temperature; 3H fluorography (Fig. 5A, 5B, fig. S5A)
T1 construct: SMYD2 (full length) was expressed as a N-terminal glutathione S-transferase (GST) fusion; GST (N); made in house; host or cells: Escherichia coli BL21(DE3)
Description: Reactions (10 μl) containing 1 μg of KMT, 1 μg of the indicated substrates, and 1 μCi of ^3H-SAM (PerkinElmer) in KMT reaction buffer were incubated for 1 hour at room temperature. Reactions were quenched by the addition of SDS loading buffer and resolved by SDS–polyacrylamide gel electrophoresis. Following the detection of total protein by Coomassie staining, gels were treated with EN^3HANCE (PerkinElmer) and dried, and methylated proteins were detected by autoradiography.
Fig. S5. In vitro SMYD2 assays with protein substrates. (A) Coomassie stained SDS-PAGE of recombinant control (HIS-GST), known substrates (p53, MAPKAPK3), and predicted substrates (PRDM11, GDAP1, MAP3K12) in the absence and presence of SMYD2. Reactions were carried out with 1 μg of SMYD2, 1 μg of substrate, and 1 μCi of 3H-SAM. 3H fluorograph shown below after 24 hour exposure at -80 °C (B) Cartoon repre- sentation of ZPK (PDB:
5CEN) showing plus and minus three amino acids from the target lysine (PO) as stick models.
(1 picture or pasted object on this page, not shown here)

SMYD2 [2] = target: T1, SMYD2; experiment: SPA kinetic analysis of SMYD2 methylation of peptide substrates; format: biochemical; conditions: 200 nM SMYD2, 50 μM SAM, varied substrate concentration, mean of three independent measurements (Fig. 4D)
Description: Reactions (10 μl) containing 1 μg of KMT, 1 μg of a K-OPL set, and 1 μCi of ^3H-SAM (PerkinElmer) in KMT reaction buffer [50 mM tris (pH 8.8), 5 mM MgCl2, and 4 mM dithiothreitol] were incubated for 1 hour at room temperature. Reactions were stopped by adding trifluoracetic acid to a final concentration of 0.5%, neutralized by diluting with 135 μl of 50 mM NaHCO3, and transferred to streptavidin-coated FlashPlates (PerkinElmer). Plates were incubated for 15 min, sealed, and counted in a MicroBeta2 liquid scintillation counter (PerkinElmer) for 1 min per sample. Initial rate measure and kinetic analysis were performed using the same procedure with 200 nM SMYD2, 50 μM SAM (5:1 cold/hot ratio), and 80 μM substrate (initial rate measurements) or as indicated (kinetic analysis). IC50 measurements were performed using the same conditions with 5 μM PER2 peptide as a substrate.

T1 sequence (Q9NRG4 whole entry, the tested form may be a part): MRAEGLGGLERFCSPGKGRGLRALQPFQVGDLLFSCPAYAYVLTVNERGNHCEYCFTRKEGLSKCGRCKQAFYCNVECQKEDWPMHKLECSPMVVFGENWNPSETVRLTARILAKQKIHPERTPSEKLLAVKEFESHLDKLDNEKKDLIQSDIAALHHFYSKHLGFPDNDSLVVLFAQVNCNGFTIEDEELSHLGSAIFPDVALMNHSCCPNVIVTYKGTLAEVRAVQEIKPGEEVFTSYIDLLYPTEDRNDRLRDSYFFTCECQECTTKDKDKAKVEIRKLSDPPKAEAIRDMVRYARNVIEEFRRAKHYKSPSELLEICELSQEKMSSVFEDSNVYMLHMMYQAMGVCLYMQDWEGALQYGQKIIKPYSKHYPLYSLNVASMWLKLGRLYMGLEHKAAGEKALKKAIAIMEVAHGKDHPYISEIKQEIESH

B1: ZPK: recombinant protein, predicted SMYD2 substrate (protein, UniProt Q12852 1-859, looked up)
Mitogen-activated protein …: MACLHETRTPSPSFGGFVSTLSEASMRKLDPDTSDCTPEKDLTPTHVLQLHEQDAGGPGGAAGSPESRASRVRADEVRLQCQSGSGFLEGLFGCLRPVWTMIGKAYSTEHKQQQEDLWEVPFEEILDLQWVGSGAQGAVFLGRFHGEEVAVKKVRDLKETDIKHLRKLKHPNIITFKGVCTQAPCYCILMEFCAQGQLYEVLRAGRPVTPSLLVDWSMGIAGGMNYLHLHKIIHRDLKSPNMLITYDDVVKISDFGTSKELSDKSTKMSFAGTVAWMAPEVIRNEPVSEKVDIWSFGVVLWELLTGEIPYKDVDSSAIIWGVGSNSLHLPVPSSCPDGFKILLRQCWNSKPRNRPSFRQILLHLDIASADVLSTPQETYFKSQAEWREEVKLHFEKIKSEGTCLHRLEEELVMRRREELRHALDIREHYERKLERANNLYMELNALMLQLELKERELLRREQALERRCPGLLKPHPSRGLLHGNTMEKLIKKRNVPQKLSPHSKRPDILKTESLLPKLDAALSGVGLPGCPKGPPSPGRSRRGKTRHRKASAKGSCGDLPGLRTAVPPHEPGGPGSPGGLGGGPSAWEACPPALRGLHHDLLLRKMSSSSPDLLSAALGSRGRGATGGAGDPGSPPPARGDTPPSEGSAPGSTSPDSPGGAKGEPPPPVGPGEGVGLLGTGREGTSGRGGSRAGSQHLTPAALLYRAAVTRSQKRGISSEEEEGEVDSEVELTSSQRWPQSLNMRQSLSTFSSENPSDGEEGTASEPSPSGTPEVGSTNTDERPDERSDDMCSQGSEIPLDPPPSEVIPGPEPSSLPIPHQELLRERGPPNSEDSDCDSTELDNSNSVDALRPPASLPP
methylation of recombinant protein substrate by SMYD2 (SMYD2 [1]): methylated by SMYD2; also recorded: poor SMYD2 substrates

B2: MAPKAPK3: full-length recombinant MAPKAPK3, known SMYD2 substrate (protein, UniProt Q16644 1-382, looked up)
chain: MDGETAEEQGGPVPPPVAPGGPGLGGAPGGRREPKKYAVTDDYQLSKQVLGLGVNGKVLECFHRRTGQKCALKLLYDSPKARQEVDHHWQASGGPHIVCILDVYENMHHGKRCLLIIMECMEGGELFSRIQERGDQAFTEREAAEIMRDIGTAIQFLHSHNIAHRDVKPENLLYTSKEKDAVLKLTDFGFAKETTQNALQTPCYTPYYVAPEVLGPEKYDKSCDMWSLGVIMYILLCGFPPFYSNTGQAISPGMKRRIRLGQYGFPNPEWSEVSEDAKQLIRLLLKTDPTERLTITQFMNHPWINQSMVVPQTPLHTARVLQEDKDHWDEVKEEMTSALATMRVDYDQVKIKDLKTSNNRLLNKRRKKQAGSSSASQGCNNQ
modifications: full-length
notes: full-length recombinant MAPKAPK3, known SMYD2 substrate
methylation of recombinant protein substrate by SMYD2 (SMYD2 [1]): weaker than most of the newly identified SMYD2 substrates

methylation of recombinant protein substrate by SMYD2 (SMYD2 [1]): improved methylation of this protein
B3: MAPKAPK3 (D353R and T356S): MAPKAPK3 with mutations predicted to enhance methylation (protein, UniProt Q16644 1-382, looked up, variant D353R T356S)
MAP kinase-activated protein …: B2 chain with D353R, T356S

B4: ATP6V1G3: recombinant ATP6V1G3 (full length), N-terminal GST fusion (protein, UniProt Q96LB4 1-118, looked up)
chain: MTSQSQGIHQLLQAEKRAKDKLEEAKKRKGKRLKQAKEEAMVEIDQYRMQRDKEFRLKQSKIMGSQNNLSDEIEEQTLGKIQELNGHYNKYMESVMNQLLSMVCDMKPEIHVNYRATN
modifications: full-length N-terminal GST fusion
methylation of recombinant protein substrate by SMYD2 (SMYD2 [1]): methylated by SMYD2; also recorded: at least as efficiently as the known substrate, p53

B5: CDC5L: recombinant CDC5L (amino acids 150 to 280), N-terminal GST fusion (protein, UniProt Q99459 150-280, looked up, fragment)
chain: EMLSEARARLANTQGKKAKRKAREKQLEEARRLAALQKRRELRAAGIEIQKKRKRKRGVDYNAEIPFEKKPALGFYDTSEENYQALDADFRKLRQQDLDGELRSEKEGRDRKKDKQHLKRKKESDLPSAIL
modifications: N-terminal GST fusion
notes: recombinant CDC5L (amino acids 150 to 280), N-terminal GST fusion
methylation of recombinant protein substrate by SMYD2 (SMYD2 [1]): methylated by SMYD2; also recorded: at least as efficiently as the known substrate, p53

B6: GDAP1: recombinant GDAP1 (full length), Abcam (protein, UniProt Q8TB36 1-358, looked up)
chain: MAERQEEQRGSPPLRAEGKADAEVKLILYHWTHSFSSQKVRLVIAEKALKCEEHDVSLPLSEHNEPWFMRLNSTGEVPVLIHGENIICEATQIIDYLEQTFLDERTPRLMPDKESMYYPRVQHYRELLDSLPMDAYTHGCILHPELTVDSMIPAYATTRIRSQIGNTESELKKLAEENPDLQEAYIAKQKRLKSKLLDHDNVKYLKKILDELEKVLDQVETELQRRNEETPEEGQQPWLCGESFTLADVSLAVTLHRLKFLGFARRNWGNGKRPNLETYYERVLKRKTFNKVLGHVNNILISAVLPTAFRVAKKRAPKVLGTTLVVGLLAGVGYFAFMLFRKRLGSMILAFRPRPNYF
modifications: full-length
notes: recombinant GDAP1 (full length), Abcam
methylation of recombinant protein substrate by SMYD2 (SMYD2 [1]): methylated by SMYD2; also recorded: poor SMYD2 substrates

kinetic model of SMYD2 methylation (SMYD2 [2]): consistent with substrate inhibition
B7: PER2: recombinant PER2 (amino acids 691 to 900), N-terminal MBP-His fusion (protein, UniProt O15055 691-900, looked up, fragment)
chain: VEDAASGPESLDCLAGPALACGLSQEKEPFKKLGLTKEVLAAHTQKEEQSFLQKFKEIRKLSIFQSHCHYYLQERSKGQPSERTAPGLRNTSGIDSPWKKTGKNRKLKSKRVKPRDSSESTGSGGPVSARPPLVGLNATAWSPSDTSQSSCPAVPFPAPVPAAYSLPVFPAPGTVAAPPAPPHASFTVPAVPVDLQHQFAVQPPPFPAPL
modifications: N-terminal MBP-His fusion
notes: recombinant PER2 (amino acids 691 to 900), N-terminal MBP-His fusion
methylation of recombinant protein substrate by SMYD2 (SMYD2 [1]): methylated by SMYD2; also recorded: at least as efficiently as the known substrate, p53

Reference: PMC6261651, “A functional proteomics platform to reveal the sequence determinants of lysine methyltransferase substrate selectivity” (Science Advances, 2018)
